The values below come from publication PMC6702328 (2019).

Some results are limits rather than exact numbers.

What all share (assay): MST
In one assay the target is human mutant SOD1^G93A (human, fluorescently labeled (NanoTemper BLUE protein-labeling kit) where it was the labelled partner in MST).
Target sequence (chain, as listed by the source G93A): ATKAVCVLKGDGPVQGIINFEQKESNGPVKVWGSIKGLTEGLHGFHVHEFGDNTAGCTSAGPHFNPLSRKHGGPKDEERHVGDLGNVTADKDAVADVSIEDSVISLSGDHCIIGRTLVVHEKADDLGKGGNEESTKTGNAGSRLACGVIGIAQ
In assay [1] the target is wild type human SOD1 (Cu/Zn superoxide dismutase) (human, UniProt P00441 1-154, fluorescently labeled (NanoTemper BLUE protein-labeling kit) where it was the labelled partner in MST).
Chain of wild type human SOD1 (Cu/Zn superoxide dismutase) (P00441 whole entry): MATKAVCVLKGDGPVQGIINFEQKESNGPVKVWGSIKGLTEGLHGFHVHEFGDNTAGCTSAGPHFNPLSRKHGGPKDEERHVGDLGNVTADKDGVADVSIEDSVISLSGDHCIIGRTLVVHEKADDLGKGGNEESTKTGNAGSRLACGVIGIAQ
The next assay concerns the target human mutant SOD1^G85R (human, fluorescently labeled (NanoTemper BLUE protein-labeling kit) where it was the labelled partner in MST).

B1: 1-26 N-Terminal peptide of VDAC1 (peptide)
peptide: MAVPPTYADLGKSARDVFTKGYGFGL
The EC50 is the concentration that produces a half-maximal response. High values mean lower potency in that assay, low ones higher potency in that assay. As to B1, the EC50 in the assay with human mutant SOD1^G93A was 3.75 µM; in assay [1], greater than 200 µM; in the assay with human mutant SOD1^G85R, 3.75 µM.
